# Experimental data as given in US8981179B2, “Transgenic non-human animal and uses thereof” (Sanofi, priority 2009, dated 2015).
# B1: PROK2: prokineticin 2 peptide (Peprotech), agonist for the PROK2R (protein)
# chain: AVITGACDKDSQCGGGMCCAVSIWVKSIRICTPMGKLGDSCHPLTRKVPFFGRRMHHTCPCLPGLACLRTSFNRFICLAQK
# Target: T1, prokineticin 2 receptor (PROK2R) (Mus musculus, UniProt Q8K458)
# T1 construct: endogenous in cells; host or cells: primary cortical neurons, E18, CreLuc mouse lines (187 and others)
# Experiment: Primary cortical neurons CreLuc luciferase assay, Gq modulation
# Type: cell-based
# Description: A general schematic of the workflow for the isolation and compound treatment of primary neuronal cells from the CreLuc model is depicted in FIG. 9. Cortices or other brain subregions are removed from embryos, usually embryonic (E) day 17 or 18, but also as early as E14. The individual neurons are then isolated and plated onto 96 well assay plates. Assays are run either in triplicate or quadruplicate. The assays are run from day 3 in culture up until day 7 or day 10 in culture depending on the expression levels of the target GPCR. Compounds are added to the plates then at a set timepoint, Bright Glo (Promega, Cat #E2610) is added to the plates and the assay is then run on a TopCount or other luminometer.
# Primary cell cultures from the CreLuc mice may be used to screen compounds that are capable of modulating Gs coupled receptors. The PROK2R is Gq coupled, therefore, prokineticin 2 (PROK2) which is an agonist for the PROK2R was used to see whether CreLuc mice would be responsive to Gq modulation. […]
# The effects of PROK2 peptide on luciferase expression in primary cortical neurons from different CreLuc lines was examined. […] Lines were selected based on earlier experiments which determined inducible luciferase levels in whole brain extracts (data not shown). […] BrightGlo was used for the assay and read on a TopCount. […]
# T1 sequence (Q8K458 whole entry): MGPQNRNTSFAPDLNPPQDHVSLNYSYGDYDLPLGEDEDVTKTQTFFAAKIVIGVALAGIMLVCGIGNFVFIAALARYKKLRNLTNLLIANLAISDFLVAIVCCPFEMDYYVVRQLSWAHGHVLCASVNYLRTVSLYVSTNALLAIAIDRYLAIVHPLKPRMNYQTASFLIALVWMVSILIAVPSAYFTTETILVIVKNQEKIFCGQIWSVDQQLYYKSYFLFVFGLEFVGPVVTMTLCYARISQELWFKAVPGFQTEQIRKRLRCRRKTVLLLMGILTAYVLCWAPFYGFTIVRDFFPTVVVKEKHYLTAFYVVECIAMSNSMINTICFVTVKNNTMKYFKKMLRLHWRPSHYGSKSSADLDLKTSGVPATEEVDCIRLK
molecule,measurement,setting,value
B1,luciferase levels vs media only control,"cortical neurons line 187, day 3, 1 nM and 100 nM, 4 hours and 8 hours",Highly significant increases
same,luciferase levels in cortical neurons from different CreLuc lines,"lines 219 and 175, 1 nM and 100 nM, 4 hours and 24 hours",Statistically significant increases
